Measured values reported in patent US20260209386A1 (MYTHIC THERAPEUTICS, published 2026).

T1: Human PTK7 Protein, His Tag (Acro Biosystems) (human, UniProt Q13308 31-704)
T1 construct: Bought His-tagged protein; also called CCK4; not shown: His tag
T1 sequence: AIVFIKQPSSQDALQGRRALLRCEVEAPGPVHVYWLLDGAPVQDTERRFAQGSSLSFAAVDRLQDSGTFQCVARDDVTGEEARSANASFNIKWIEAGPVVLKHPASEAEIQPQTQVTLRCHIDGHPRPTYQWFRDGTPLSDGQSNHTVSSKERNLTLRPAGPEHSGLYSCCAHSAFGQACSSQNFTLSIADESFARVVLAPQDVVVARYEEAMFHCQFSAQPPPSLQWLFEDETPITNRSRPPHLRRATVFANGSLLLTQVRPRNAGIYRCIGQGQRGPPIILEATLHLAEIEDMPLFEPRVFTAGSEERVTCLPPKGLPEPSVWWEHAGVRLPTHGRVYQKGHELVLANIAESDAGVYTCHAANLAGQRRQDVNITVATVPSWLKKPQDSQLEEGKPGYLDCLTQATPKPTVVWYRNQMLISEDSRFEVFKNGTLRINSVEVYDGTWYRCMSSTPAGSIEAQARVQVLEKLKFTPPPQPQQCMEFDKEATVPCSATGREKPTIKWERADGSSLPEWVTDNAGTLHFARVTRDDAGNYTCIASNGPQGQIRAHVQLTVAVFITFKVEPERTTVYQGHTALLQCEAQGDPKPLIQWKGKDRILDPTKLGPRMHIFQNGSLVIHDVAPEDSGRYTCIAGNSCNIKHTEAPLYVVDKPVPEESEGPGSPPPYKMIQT

T2: Human PTK7 Protein, His Tag, Acro Biosystems (human, UniProt Q13308 31-704)
T2 construct: Bought recombinant protein; also called CCK4; not shown: His tag
T2 sequence: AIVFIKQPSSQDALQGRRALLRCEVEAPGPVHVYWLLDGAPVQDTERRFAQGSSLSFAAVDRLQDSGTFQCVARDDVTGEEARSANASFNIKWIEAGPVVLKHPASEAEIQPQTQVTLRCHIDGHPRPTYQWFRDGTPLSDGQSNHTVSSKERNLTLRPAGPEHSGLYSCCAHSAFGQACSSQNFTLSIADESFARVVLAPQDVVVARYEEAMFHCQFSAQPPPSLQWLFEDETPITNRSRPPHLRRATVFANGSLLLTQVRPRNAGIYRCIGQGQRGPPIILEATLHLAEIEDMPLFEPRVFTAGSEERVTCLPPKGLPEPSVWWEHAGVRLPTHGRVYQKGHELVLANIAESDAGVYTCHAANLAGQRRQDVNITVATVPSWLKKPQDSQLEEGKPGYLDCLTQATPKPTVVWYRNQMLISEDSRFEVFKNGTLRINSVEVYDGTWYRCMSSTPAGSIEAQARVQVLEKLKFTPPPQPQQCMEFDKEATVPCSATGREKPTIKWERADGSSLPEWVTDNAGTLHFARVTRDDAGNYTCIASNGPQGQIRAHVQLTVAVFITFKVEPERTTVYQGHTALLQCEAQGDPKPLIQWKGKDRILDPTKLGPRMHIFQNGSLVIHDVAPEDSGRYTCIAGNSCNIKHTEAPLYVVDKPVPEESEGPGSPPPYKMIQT


Columns and labels:
[1] = target: T1, Human PTK7 Protein, His Tag (Acro …); experiment: BLI (Octet), antibody on anti-human Fc sensor, 50 nM PTK7; grade 1 = pH dependent binding relative to parent
[2] = target: T2, Human PTK7 Protein, His Tag, Acro …; experiment: BLI, anti-human Fc capture, 50 nM PTK7; 1 = pH dependent binding relative to parent

| Binder | binding result [1] | binding result [2] |
| --- | --- | --- |
| MYT11093 (antibody, V domains shown, MYT9361 LC variant) VH: EVQLVESGGGLVQPGGSLRLSCTASGLSLSSYWMSWVRQAPGKGLEWVGVISAGGNTYYANWAKGRFTISRDTSKNTVYLQMNSLRAEDTAVYFCARGDDGYTNAAYVSNLWGQGTLVTVSS VL: EIVMTQSPSTLSASVGDRVIITCQASQSISSWLSWYQQKPGKAPKLLIYKASTLASGVPSRFSGSGSGAEFTLTISSLQPDDFATYYCQSYHDSTTIAFGQGTKLTVL | binds |  |
| MYT11289 (antibody, V domains shown) VH: EVQLVESGGGLVQPGGSLRLSCTASGIDLSRYSMGWVRQAPGKGLEWVGIISYGGSTYYASWAKGRFTISRDTSKNTVYLQMNSLRAEDTAVYFCARVGYPGYSHYGYAFDAFDPWGQGTLVTVSS VL: EIVMTQSPSTLSASVGDRVIITCQSSKSVYNDNWLSWYQQKPGKAPKLLIYGASTLASGVPSRFSGSGSGAEFTLTISSLQPDDFATYYCAGGYSSSSDNGFGQGTKLTVL |  | binds |
| MYT11322 (antibody, V domains shown, MYT9792 variant, His at VL 57 (L2 06)) VH: EVQLVESGGGLVQPGGSLRLSCTASGIDLSRYSMGWVRQAPGKGLEWVGIISYGGSTYYASWAKGRFTISRDTSKNTVYLQMNSLRAEDTAVYFCARVGYPGYSGYGYAFDAFDPWGQGTLVTVSS VL: EIVMTQSPSTLSASVGDRVIITCQSSKSVYNDNWLSWYQQKPGKAPKLLIYGASTLHSGVPSRFSGSGSGAEFTLTISSLQPDDFATYYCAGGYSSSSDNGFGQGTKLTVL |  | binds |
| MYT11309 (antibody, V domains shown, MYT9792 variant, His at VL 29 (L1 06)) VH: EVQLVESGGGLVQPGGSLRLSCTASGIDLSRYSMGWVRQAPGKGLEWVGIISYGGSTYYASWAKGRFTISRDTSKNTVYLQMNSLRAEDTAVYFCARVGYPGYSGYGYAFDAFDPWGQGTLVTVSS VL: EIVMTQSPSTLSASVGDRVIITCQSSKSHYNDNWLSWYQQKPGKAPKLLIYGASTLASGVPSRFSGSGSGAEFTLTISSLQPDDFATYYCAGGYSSSSDNGFGQGTKLTVL |  | binds |
